Experimental data as given in publication PMC7290415, “Functional Consequences of the Variable Stoichiometry of the Kv1.3-KCNE4 Complex” (Cells, 2020).

T1: KCNE4-loopBAD-GFP (UniProt Q9WTW3 1-170, biotin on the loopBAD tag (BirA biotin ligase co-expressed))
T1 construct: KCNE4; also called KCNE4-pEGFP with loopBAD; KCNE4-GFP; source: HEK-293, electroporated together with BirA, on the cell surface; not shown: loopBAD (biotin acceptor domain), N-terminal, kept
T1 sequence (looked up): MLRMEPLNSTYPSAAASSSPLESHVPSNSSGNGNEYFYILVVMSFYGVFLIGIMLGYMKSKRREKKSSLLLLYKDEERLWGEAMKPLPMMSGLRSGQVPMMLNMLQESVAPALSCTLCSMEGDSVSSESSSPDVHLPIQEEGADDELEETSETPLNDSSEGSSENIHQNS

B1: Kv1.3-loopBAD-GFP (natural protein, UniProt P15384 1-525, looked up)
chain: MTVVPGDHLLEPEAAGGGGGDPPQGGCVSGGGCDRYEPLPPALPAAGEQDCCGERVVINISGLRFETQLKTLCQFPETLLGDPKRRMRYFDPLRNEYFFDRNRPSFDAILYYYQSGGRIRRPVNVPIDIFSEEIRFYQLGEEAMEKFREDEGFLREEERPLPRRDFQRQVWLLFEYPESSGPARGIAIVSVLVILISIVIFCLETLPEFRDEKDYPASPSQDVFEAANNSTSGASSGASSFSDPFFVVETLCIIWFSFELLVRFFACPSKATFSRNIMNLIDIVAIIPYFITLGTELAERQGNGQQAMSLAILRVIRLVRVFRIFKLSRHSKGLQILGQTLKASMRELGLLIFFLFIGVILFSSAVYFAEADDPSSGFNSIPDAFWWAVVTMTTVGYGDMHPVTIGGKIVGSLCAIAGVLTIALPVPVIVSNFNYFYHRETEGEEQAQYMHVGSCQHLSSSAEELRKARSNSTLSKSEYMVIEEGGMNHSAFPQTPFKTGNSTATCTTNNNPNSCVNIKKIFTDV
modifications: biotin on the loopBAD tag (BirA biotin ligase co-expressed)
notes: voltage-gated potassium channel Kv1.3; also called GFP-Kv1.3-loopBAD; pEGFP-Kv1.3 with loopBAD; source: HEK-293, electroporated together with BirA, on the cell surface; not shown: loopBAD (biotin acceptor domain), internal (first extracellular loop), kept
B2: Kv1.3-Apple (natural protein, UniProt P15384 1-525, looked up)
chain: B1 chain
notes: voltage-gated potassium channel Kv1.3; also called Kv1.3 tagged with mApple; source: HEK-293, electroporated, on the cell surface

What was measured:
[1] = target: the molecule itself; assay: counting of GFP bleaching steps of single spots (TIRF microscopy); live HEK-293 cells with Kv1.3-loopBAD-GFP and BirA; biotinylated channels at the cell surface immobilised with NeutrAvidin (50 nM) on biotin-collagen-coated glass; step distribution fitted to a binomial with p = 0.67
KCNE4-loopBAD-GFP = target: T1, KCNE4-loopBAD-GFP; assay: counting of GFP bleaching steps of single spots (TIRF microscopy); live HEK-293 cells with KCNE4-loopBAD-GFP, Kv1.3-Apple and BirA; biotinylated KCNE4 at the cell surface immobilised with NeutrAvidin (50 nM); motionless GFP spots colocalising with Kv1.3-Apple; conditions: partners not purified

| Binder | stoichiometry N [1] | stoichiometry N (KCNE4-loopBAD-GFP) [KCNE4 per Kv1.3 channel] |
| --- | --- | --- |
| B1 | 4 |  |
| B2 |  | ≤ 4 |
